# The supplement of paper PMC9112550, “Optimization of the antimicrobial peptide Bac7 by deep mutational scanning” (BMC Biology, 2022)
# System: Escherichia coli TOP10
# Experiment: shrunken log2 fold change of peptide-encoding DNA abundance (4.5 h post-induction vs induction); higher = less antimicrobial activity (less host growth inhibition)
# Details: time post-induction: 4.5 h; library: site-saturation at positions 5, 18, 19, 20
# 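Further: peptides expressed intracellularly from a pBAD plasmid library in pooled LB shake-flask culture, induced with 0.3% L-arabinose, DNA abundance read by NGS, three biological replicates, DESeq2 with apeglm shrinkage.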
row,Sequence,shrunken log2 fold change
1,RRIRCRPPRLPRPRPRPIFHPRP,-0.333
2,RRIRVRPPRLPRPRPRPIHVPRP,-0.155
3,RRIRPRPPRLPRPRPRPLSEPRP,0.126
4,RRIRDRPPRLPRPRPRPGVPPRP,0.000778
5,RRIRGRPPRLPRPRPRPQCTPRP,0.085
6,RRIRARPPRLPRPRPRPKFSPRP,0.173
7,RRIRARPPRLPRPRPRPHMYPRP,-0.149
8,RRIRARPPRLPRPRPRPVGFPRP,0.516
9,RRIRCRPPRLPRPRPRPQYGPRP,-0.142
10,RRIRTRPPRLPRPRPRPGCQPRP,-0.0154
11,RRIRKRPPRLPRPRPRPTLKPRP,0.601
12,RRIRRRPPRLPRPRPRPQPVPRP,0.299
13,RRIRLRPPRLPRPRPRPLRNPRP,0.737
14,RRIRHRPPRLPRPRPRPIFVPRP,-0.358
15,RRIRDRPPRLPRPRPRPGVHPRP,-0.0373
16,RRIRCRPPRLPRPRPRPYTEPRP,-1.42
17,RRIRLRPPRLPRPRPRPKVFPRP,0.0303
18,RRIRPRPPRLPRPRPRPLSKPRP,0.14
19,RRIRNRPPRLPRPRPRPNYRPRP,-0.264
20,RRIRRRPPRLPRPRPRPCKAPRP,0.122
21,RRIRSRPPRLPRPRPRPCICPRP,-0.209
22,RRIRERPPRLPRPRPRPTRGPRP,0.0807
23,RRIRWRPPRLPRPRPRPHQSPRP,0.0383
24,RRIRARPPRLPRPRPRPDPAPRP,1.3
25,RRIRERPPRLPRPRPRPDDTPRP,-0.0925

row,Sequence,shrunken log2 fold change
1,RRIRSRPPRLPRPRPRPRSQPRP,0.169
2,RRIRNRPPRLPRPRPRPHMSPRP,0.0135
3,RRIRCRPPRLPRPRPRPLVQPRP,0.245
4,RRIRFRPPRLPRPRPRPGFPPRP,0.098
5,RRIRCRPPRLPRPRPRPQKSPRP,-0.554
6,RRIRVRPPRLPRPRPRPSHIPRP,-0.706
7,RRIRARPPRLPRPRPRPHAGPRP,0.122
8,RRIRDRPPRLPRPRPRPWYFPRP,-0.327
9,RRIRCRPPRLPRPRPRPQFMPRP,-0.59
10,RRIRPRPPRLPRPRPRPYHIPRP,-0.672
11,RRIRWRPPRLPRPRPRPPSLPRP,0.115
12,RRIRFRPPRLPRPRPRPKSWPRP,0.199
13,RRIRTRPPRLPRPRPRPPQDPRP,0.608
14,RRIRWRPPRLPRPRPRPLCEPRP,0.337
15,RRIRTRPPRLPRPRPRPVWIPRP,-0.651
16,RRIRHRPPRLPRPRPRPFREPRP,-0.0591
17,RRIRGRPPRLPRPRPRPIVGPRP,0.00341
18,RRIRERPPRLPRPRPRPKYKPRP,-0.369
19,RRIRYRPPRLPRPRPRPNSNPRP,-1.47
20,RRIRRRPPRLPRPRPRPWITPRP,-0.0428
21,RRIRRRPPRLPRPRPRPWILPRP,-0.0248
22,RRIRLRPPRLPRPRPRPIPAPRP,-0.112
23,RRIRKRPPRLPRPRPRPPGGPRP,0.811
24,RRIRQRPPRLPRPRPRPHQDPRP,-0.327
25,RRIRNRPPRLPRPRPRPKIVPRP,-0.0195

row,Sequence,shrunken log2 fold change
1,RRIRWRPPRLPRPRPRPYDNPRP,-0.263
2,RRIRWRPPRLPRPRPRPISAPRP,-0.0163
3,RRIRDRPPRLPRPRPRPRWFPRP,-0.0867
4,RRIRRRPPRLPRPRPRPGKVPRP,-0.037
5,RRIRGRPPRLPRPRPRPYTMPRP,-0.342
6,RRIRHRPPRLPRPRPRPWTNPRP,-0.101
7,RRIRNRPPRLPRPRPRPGLQPRP,-0.113
8,RRIRDRPPRLPRPRPRPLRIPRP,0.168
9,RRIRTRPPRLPRPRPRPSHDPRP,-0.459
10,RRIRKRPPRLPRPRPRPLWQPRP,0.442
11,RRIRNRPPRLPRPRPRPQKKPRP,0.0889
12,RRIRTRPPRLPRPRPRPPVVPRP,-0.0715
13,RRIRPRPPRLPRPRPRPVMLPRP,-0.0771
14,RRIRFRPPRLPRPRPRPVYMPRP,-0.969
15,RRIRNRPPRLPRPRPRPKIMPRP,0.0385
16,RRIRCRPPRLPRPRPRPRPAPRP,0.834
17,RRIRTRPPRLPRPRPRPMCAPRP,-0.0676
18,RRIRWRPPRLPRPRPRPWDAPRP,0.22
19,RRIRERPPRLPRPRPRPQHAPRP,-0.107
20,RRIRFRPPRLPRPRPRPCKQPRP,0.00386
21,RRIRPRPPRLPRPRPRPGIQPRP,-0.214
22,RRIRERPPRLPRPRPRPFKYPRP,-0.0322
23,RRIRPRPPRLPRPRPRPCHHPRP,-0.536
24,RRIRQRPPRLPRPRPRPGFQPRP,0.00598
25,RRIRIRPPRLPRPRPRPNVHPRP,-0.398
